“Also recorded” adds a separate entry of the source.
What was measured:
[1] = system: C57BL mice; test: Observed toxicity after tail vein injection; type: in vivo; details: 5 µmoles/kg bw by tail vein injection in mouse plasma; no proper toxicological study
Protocol: TAT-PAPTP (5 µmoles/kg bw) was administered by tail vein injection to 2 C57BL mice. […] The observed toxicity was not due to the use of plasma, since mice were not made ill by the administration of PAPTP or An2-PAPTP in the same vehicle (see below, Section 2.7).
(§1) A stock solution of the peptide-PAPTP conjugates was prepared in DMSO. TAT-PAPTP was administered at 8 and 5 μmol/kg bw and An2-PAPTP only at 5 μmol/kg bw. The calculated quantity of drugs was diluted from the stock solution in saline or mouse plasma to a final volume of 200 μL.

[2] = Stability in blood (hydrolysis, PAPTPL release); type: in vitro ADME; details: fresh heparinized C57BL mouse blood, 37 °C, 5 µM from 5 mM DMSO stock, HPLC-UV, % PAPTPL released relative to amount spiked, mean, n = 5 (An2-PAPTP) and 4 (TAT-PAPTP)
Protocol: C57BL mice were anesthetized and blood was withdrawn from the jugular vein and heparinized. Blood samples (1 mL) were spiked with compound (5 µM; dilution from a 5 mM stock solution in DMSO) and incubated at 37 °C for 4 h (the maximum period allowed by blood stability). Aliquots were taken after 10 min, 30 min, 1 h, 2 h, and 4 h before HPLC-UV analysis.
Each aliquot was treated as described above (Section 4.7.1). Compound stability in blood was expressed as % of PAPTPL released relative to the amount of An2-PAPTP and TAT-PAPTP spiked in the sample at time 0.

[3] = type: in vivo, mouse; details: An2-PAPTP 5 µmoles/kg bw i.v. in mouse plasma
Protocol: The brains of these mice were analyzed to evaluate the presence of the construct in the tissue (see Section 4.7). Each brain was homogenized and incubated with an equal volume of phosphate-buffered saline (PBS, pH 12.5) for 24 h; 10 volumes of ethyl acetate were then added. After vigorous mixing, the organic phase was collected, concentrated and analyzed via HPLC. This procedure allows hydrolysis of the carbamate bond, leading to the extraction of PAPTPL, which is considered proportional to the amount of peptide-PAPTP conjugate (or its fragments) present in the brain.
The protocol set up for PAPTPL recovery turned out to be inefficient for the quantification of TAT-PAPTP. An alternative protocol was thus developed. Tissue obtained from untreated mice was weighed and homogenized with PBS pH 7.4 (1 vol) with a potter. The pre-established amount of analyte was added into tissue homogenates and, after thorough vortexing, 1 vol of PBS pH 12.5 was added and the sample was incubated with intermittent vortexing at 60 °C for 24 h. This step is required to allow the hydrolysis of the carbamate bond connecting the peptide and PAPTPL. 10 vol of ethyl acetate were added and, after vortexing and sonication for 2 min, the sample was centrifuged at 12,000× g, 7 min, Room Temperature. The organic phase was collected and concentrated with Hetovac VR-1. ACN was added to the concentrated sample to allow the resuspension of PAPTPL and analyzed via HPLC. Quantification was as described for PAPTPL.
Brain and liver obtained from untreated mice were weighed and homogenized with PBS pH 7.4 (1 vol) with a potter. The pre-established amount of analyte was added into tissue homogenates and, after thorough vortexing, 5 vol of acetone were added and the sample was sonicated for 2 min. Subsequently, 5 vol of ACN containing 0.1% trifluoracetic acid (TFA) were added and the sample was sonicated for 5 min. The sample was then centrifuged at 12,000× g for 7 min at 4 °C and the supernatant was collected, concentrated with a Hetovac VR-1, and analyzed via HPLC-UV.
To quantify the amount of An2-PAPTP stuck in the tissue, the pellet remaining after the procedure described above was incubated with intermittent Vortexing at 60 °C for 3 h with PBS pH 12.5/ACN 1:1 and then centrifuged at 12,000× g for 7 min. HPLC-UV analysis of the supernatant, measuring PAPTPL hydrolyzed from the tissue, thus indirectly reflects the amount of An2-PAPTPL in the pellet (Scheme 3). Quantification was as described for PAPTPL.
as §1

[4] = system: mouse Red Blood Cells; test: Haemolysis assay; type: cell-based; details: 5 × 10^7 mouse erythrocytes in 1 mL PBS pH 7.4, 2, 1 or 0.5 µM, 15 min, absorbance 540 nm, n = 3
Protocol: Haemolysis studies were conducted as described in [72]. Briefly, freshly withdrawn blood samples were centrifuged at 1000× g for 10 min to obtain erythrocytes; the pellet was then washed thrice with sterile PBS (pH 7.4). Erythrocytes (5 × 10^7 cells in 1 mL of PBS for each experimental condition) were incubated with 2, 1 or 0.5 µM An2-PAPTP or TAT-PAPTP for 15 min. The samples were then centrifuged and absorbance (Abs) of the supernatant was measured at 540 nm. Triton X-100 1% and PBS were used as positive and negative control, respectively.
The percentage of haemolysis was calculated with the following equation:% haemolysis = [(Abssample − AbsPBS)/AbsTriton X-100 − AbsPBS)] × 100

[5] = Preliminary brain levels after intraperitoneal An2-PAPTP; type: in vivo, mouse; details: An2-PAPTP 5 µmol/kg bw i.p. in DMSO; sacrifice at 20 min or 1, 2, 4 h; four mice
Protocol: In preliminary tests An2-PAPTP was administered at 5 µmol/kg bw by the intraperitoneal (i.p.) route, using dimethylsulfoxide (DMSO) as the vehicle. […] Many brain-penetrating peptides bind to biomolecules such as proteins and cell structures such as membranes. Furthermore, the absence of a flowing bloodstream at the injection site may cause a poorly soluble molecule to remain confined in the vicinity of the point of delivery. […] Collectively, these preliminary results led to the adoption of the intravenous route. An2-PAPTP (5 µmoles/kg bw, in plasma) was thus administered by tail vein injection to mice.

## CC[C@H](C)[C@H](NC(=O)Oc1ccc(CCCOc2ccc([P+](CCCc3ccc(OCCCCOc4c5ccoc5cc5oc(=O)ccc45)cc3)(c3ccccc3)c3ccccc3)cc2)cc1)C(=O)N[C@H](C(=O)N[C@@H](Cc1ccccc1)C(=O)N[C@@H](Cc1ccccc1)C(=O)N[C@@H](Cc1ccc(O)cc1)C(=O)NCC(=O)NCC(=O)N[C@@H](CO)C(=O)N[C@@H](CCCNC(=N)N)C(=O)NCC(=O)N[C@@H](CCCCN)C(=O)N[C@@H](CCCNC(=N)N)C(=O)N[C@@H](CC(N)=O)C(=O)N[C@@H](CC(N)=O)C(=O)N[C@@H](Cc1ccccc1)C(=O)N[C@@H](CCCCN)C(=O)N[C@H](C(=O)N[C@@H](CCC(=O)O)C(=O)N[C@@H](CCC(=O)O)C(=O)N[C@@H](Cc1ccc(O)cc1)C(=O)O)[C@@H](C)O)[C@@H](C)O [An2-PAPTP]
[1]
  observed toxicity in mice: not made ill; also recorded: considerably less toxic than TAT-PAPTP; also recorded: did not show toxicity
[2]
  hydrolyzed in mouse blood over 4 h (PAPTPL released): about 60%
[3]; 15 min, PAPTPL after carbamate hydrolysis, mean ± SEM, n = 5
  Brain Psoralenic Species (nmol/g Tissue), 15 min: 0.3 ± 0.1 nmol/g Tissue
[3]; 30 min, PAPTPL after carbamate hydrolysis, mean ± SEM, n = 4
  Brain Psoralenic Species (nmol/g Tissue), 30 min: 0.4 ± 0.6 nmol/g Tissue
[3]; one hour
  presence in brain one hour post-injection: only a trace could be detected
[4]
  haemolysis (release of haemoglobin): did not induce a measurable release of haemoglobin
[5]
  detection in brain after i.p. administration: no An2-PAPTP or PAPTPL could be detected

From PMC7914648 (Pharmaceuticals, 2021)
